Assays:
HLA-B*08:01 = experiment: IEDB peptide-MHC binding, purified MHC/competitive/fluorescence; ≥ and ≤ were set here for values at or beyond the usual limits of such assays
HLA-B*58:01 [1] = experiment: IEDB peptide-MHC binding, purified MHC/competitive/fluorescence; filed as Kd, often an IC50 or EC50 that approximates it; ≥ and ≤ were set here for values at or beyond the usual limits of such assays; conditions: source organism: Yersinia pestis Nepal516
HLA-A*03:01 [2] = experiment: as above
HLA-B*35:01 = experiment: as above
HLA-A*01:01 [3] = experiment: as above
HLA-A*11:01 [4] = experiment: IEDB peptide-MHC binding, purified MHC/competitive/fluorescence; ≥ and ≤ were set here for values at or beyond the usual limits of such assays; conditions: source organism: Vaccinia virus Copenhagen
HLA-A*24:02 = experiment: as above
HLA-A*03:01 [5] = experiment: as above; conditions: source organism: Vaccinia virus Copenhagen
HLA-B*58:01 [6] = experiment: IEDB peptide-MHC binding, purified MHC/direct/fluorescence; filed as Kd, often an IC50 or EC50 that approximates it; ≥ and ≤ were set here for values at or beyond the usual limits of such assays; conditions: source organism: Variola virus
HLA-A*26:01 [7] = experiment: as above; conditions: source organism: Camelpox virus M-96
HLA-A*11:01 [8] = experiment: as above; conditions: source organism: Variola virus
HLA-B*40:01 = experiment: as above; conditions: source organism: Camelpox virus M-96
HLA-B*27:05 = experiment: as above; conditions: source organism: Camelpox virus M-96
HLA-A*02:01 [9] = experiment: as above; conditions: source organism: Camelpox virus M-96
HLA-B*48:01 = experiment: as above; conditions: source organism: Camelpox virus M-96
HLA-B*08:02 = experiment: as above; conditions: source organism: Variola virus
HLA-A*69:01 [10] = experiment: as above; conditions: source organism: Camelpox virus M-96
HLA-A*01:01 [11] = experiment: as above; conditions: source organism: Camelpox virus M-96
HLA-A*31:01 = experiment: as above; conditions: source organism: Camelpox virus M-96
HLA-A*30:01 = experiment: IEDB peptide-MHC binding, purified MHC/competitive/fluorescence; filed as Kd, often an IC50 or EC50 that approximates it; ≥ and ≤ were set here for values at or beyond the usual limits of such assays; conditions: source organism: Vaccinia virus WR
HLA-B*15:17 = experiment: as above
HLA-B*15:01 [12] = experiment: as above
HLA-B*57:01 = experiment: as above
HLA-A*32:01 = experiment: IEDB peptide-MHC binding, purified MHC/competitive/radioactivity; filed as Kd, often an IC50 or EC50 that approximates it; ≥ and ≤ were set here for values at or beyond the usual limits of such assays; conditions: source organism: Vaccinia virus WR
HLA-A*26:01 [13] = experiment: IEDB peptide-MHC binding, purified MHC/competitive/fluorescence; filed as Kd, often an IC50 or EC50 that approximates it; ≥ and ≤ were set here for values at or beyond the usual limits of such assays
HLA-B*39:01 = experiment: as above
HLA-A*02:01 [14] = experiment: as above
HLA-A*23:01 = experiment: as above
HLA-A*02:03 = experiment: as above
HLA-B*46:01 = experiment: as above
HLA-A*02:19 = experiment: as above
HLA-A*29:02 = experiment: as above
HLA-B*18:01 = experiment: as above
HLA-A*02:16 = experiment: as above
HLA-A*24:03 = experiment: as above
HLA-B*27:03 = experiment: as above
HLA-B*51:01 = experiment: as above; conditions: source organism: Giardia lamblia ATCC 50803
HLA-A*02:11 = experiment: as above
HLA-A*68:02 = experiment: as above
HLA-A*69:01 [15] = experiment: as above
HLA-A*02:12 = experiment: as above
HLA-C*06:02 = experiment: IEDB peptide-MHC binding, purified MHC/direct/fluorescence; filed as Kd, often an IC50 or EC50 that approximates it; ≥ and ≤ were set here for values at or beyond the usual limits of such assays; conditions: source organism: Influenza A virus (A/81/HO)
HLA-B*15:01 [16] = experiment: IEDB peptide-MHC binding, purified MHC/competitive/fluorescence; ≥ and ≤ were set here for values at or beyond the usual limits of such assays; conditions: source organism: Vaccinia virus
[17] = source organism: Vaccinia virus WR
[18] = source organism: Yersinia pestis Nepal516
[19] = source organism: Vaccinia virus Copenhagen
[20] = source organism: Klebsiella pneumoniae subsp. pneumoniae NTUH-K2044
[21] = source organism: Giardia lamblia ATCC 50803
[22] = source organism: Bacillus anthracis str. A0488
[23] = source organism: Influenza A virus (A/81/HO)
[24] = source organism: Vaccinia virus

DIKASNIVL
IC50 (HLA-B*08:01; [17]): ≥ 266 µM

FTIRDVLAY
Kd (HLA-B*58:01 [1]): 0.0041 µM | Kd (HLA-A*03:01 [2]; [18]): ≥ 20 µM | Kd (HLA-B*35:01; [18]): 0.0013 µM | Kd (HLA-A*01:01 [3]; [18]): 0.0025 µM

FTWSGDVRY
Kd (HLA-B*58:01 [1]): 0.404 µM | Kd (HLA-B*35:01; [18]): ≤ 0.0001 µM | Kd (HLA-A*01:01 [3]; [18]): 0.132 µM

ITFALKKLI
IC50 (HLA-B*08:01; [19]): ≥ 210 µM | IC50 (HLA-A*11:01 [4]): 57.7 µM | IC50 (HLA-A*24:02; [19]): 2.3 µM | IC50 (HLA-A*03:01 [5]): 60.8 µM

ITMVNSLTY
Kd (HLA-B*58:01 [6]): 0.013 µM | Kd (HLA-A*26:01 [7]): 0.258 µM | Kd (HLA-A*11:01 [8]): 0.012 µM | Kd (HLA-B*40:01): ≥ 20 µM | Kd (HLA-B*27:05): ≥ 20 µM | Kd (HLA-A*02:01 [9]): ≥ 20 µM | Kd (HLA-B*48:01): ≥ 20 µM | Kd (HLA-B*08:02): ≥ 20 µM | Kd (HLA-A*69:01 [10]): ≥ 20 µM | Kd (HLA-A*01:01 [11]): 0.0371 µM | Kd (HLA-A*31:01): ≥ 20 µM | Kd (HLA-A*30:01): ≥ 20 µM | Kd (HLA-B*15:17; [17]): 0.0041 µM | Kd (HLA-B*15:01 [12]; [17]): 0.228 µM | Kd (HLA-B*57:01; [17]): 0.257 µM | Kd (HLA-A*03:01 [2]; [17]): 0.039 µM | Kd (HLA-B*35:01; [17]): 0.29 µM | Kd (HLA-A*32:01): 0.0957 µM

KVLSHGWAY
Kd (HLA-A*03:01 [2]; [20]): 0.429 µM | Kd (HLA-B*35:01; [20]): 0.0267 µM

NAMGADYYA
Kd (HLA-A*26:01 [13]; [21]): ≥ 20 µM | Kd (HLA-B*39:01; [21]): ≥ 20 µM | Kd (HLA-A*02:01 [14]; [21]): ≥ 20 µM | Kd (HLA-A*23:01; [21]): ≥ 20 µM | Kd (HLA-B*15:17; [21]): ≥ 20 µM | Kd (HLA-B*15:01 [12]; [21]): ≥ 20 µM | Kd (HLA-B*57:01; [21]): ≥ 20 µM | Kd (HLA-A*03:01 [2]; [21]): ≥ 20 µM | Kd (HLA-A*02:03; [21]): ≥ 20 µM | Kd (HLA-B*46:01; [21]): ≥ 20 µM | Kd (HLA-A*02:19; [21]): 0.0151 µM | Kd (HLA-A*29:02; [21]): 0.869 µM | Kd (HLA-B*18:01; [21]): ≥ 20 µM | Kd (HLA-A*02:16; [21]): ≥ 20 µM | Kd (HLA-A*24:03; [21]): ≥ 20 µM | Kd (HLA-B*27:03; [21]): ≥ 20 µM | Kd (HLA-B*51:01): ≥ 20 µM

SASLAALFY
Kd (HLA-B*35:01; [22]): 0.0002 µM | Kd (HLA-A*01:01 [3]; [22]): 0.0281 µM

TEDDWITYI
Kd (HLA-A*26:01 [13]; [21]): ≥ 20 µM | Kd (HLA-A*02:11; [21]): ≥ 20 µM | Kd (HLA-B*39:01; [21]): ≥ 20 µM | Kd (HLA-A*02:01 [14]; [21]): ≥ 20 µM | Kd (HLA-A*23:01; [21]): ≥ 20 µM | Kd (HLA-B*15:17; [21]): ≥ 20 µM | Kd (HLA-A*68:02; [21]): ≥ 20 µM | Kd (HLA-A*69:01 [15]; [21]): ≥ 20 µM | Kd (HLA-B*15:01 [12]; [21]): ≥ 20 µM | Kd (HLA-A*02:12; [21]): ≥ 20 µM | Kd (HLA-B*57:01; [21]): ≥ 20 µM | Kd (HLA-A*03:01 [2]; [21]): ≥ 20 µM | Kd (HLA-A*02:03; [21]): ≥ 20 µM | Kd (HLA-B*46:01; [21]): ≥ 20 µM | Kd (HLA-A*02:19; [21]): ≥ 20 µM | Kd (HLA-A*29:02; [21]): ≥ 20 µM | Kd (HLA-B*18:01; [21]): ≥ 20 µM | Kd (HLA-A*02:16; [21]): 0.402 µM | Kd (HLA-A*24:03; [21]): ≥ 20 µM | Kd (HLA-B*27:03; [21]): ≥ 20 µM | Kd (HLA-B*51:01): ≥ 20 µM

TRVLKPSVI
IC50 (HLA-B*08:01; [17]): ≥ 187 µM

VIMWYNYLF
Kd (HLA-A*26:01 [13]; source organism: Fowlpox virus): ≥ 20 µM | Kd (HLA-A*02:11; source organism: Fowlpox virus): 0.0047 µM | Kd (HLA-B*39:01; source organism: Fowlpox virus): ≥ 20 µM | Kd (HLA-A*02:01 [14]; source organism: Fowlpox virus): ≥ 20 µM | Kd (HLA-A*23:01; source organism: Fowlpox virus): ≥ 20 µM | Kd (HLA-B*15:17; source organism: Fowlpox virus): ≥ 20 µM | Kd (HLA-A*68:02; source organism: Fowlpox virus): ≥ 20 µM | Kd (HLA-A*69:01 [15]; source organism: Fowlpox virus): ≥ 20 µM | Kd (HLA-B*15:01 [12]; source organism: Fowlpox virus): ≥ 20 µM | Kd (HLA-A*02:12; source organism: Fowlpox virus): ≥ 20 µM | Kd (HLA-B*57:01; source organism: Fowlpox virus): ≥ 20 µM | Kd (HLA-A*03:01 [2]; source organism: Fowlpox virus): ≥ 20 µM | Kd (HLA-A*02:03; source organism: Fowlpox virus): ≥ 20 µM | Kd (HLA-B*46:01; source organism: Fowlpox virus): ≥ 20 µM | Kd (HLA-A*02:19; source organism: Fowlpox virus): ≥ 20 µM | Kd (HLA-A*29:02; source organism: Fowlpox virus): ≥ 20 µM | Kd (HLA-B*18:01; source organism: Fowlpox virus): ≥ 20 µM | Kd (HLA-A*02:16; source organism: Fowlpox virus): ≥ 20 µM | Kd (HLA-A*24:03; source organism: Fowlpox virus): ≥ 20 µM | Kd (HLA-B*27:03; source organism: Fowlpox virus): ≥ 20 µM

WMACNSAAF
Kd (HLA-C*06:02): ≥ 20 µM | Kd (HLA-B*15:01 [12]; [23]): 0.0146 µM | Kd (HLA-B*46:01; [23]): 0.109 µM | Kd (HLA-B*35:01; [23]): 0.0002 µM

YSKDSRNKL
IC50 (HLA-B*08:01; [24]): ≥ 77.1 µM | IC50 (HLA-A*24:02; [24]): 19.7 µM | IC50 (HLA-B*15:01 [16]): ≥ 255 µM
